Consider four molecules from patent publication US7851182 (CONARIS RESEARCH INSTITUTE, dated 2010).

B1: sgp130(D1-D3)S0-Fc (Fc fusion)
chain: ELLDPCGYISPESPVVQLHSNFTAVCVLKEKCMDYFHVNANYIVWKTNHFTIPKEQYTIINRTASSVTFTDIASLNIQLTCNILTFGQLEQNVYGITIISGLPPEKPKNLSCIVNEGKKMRCEWDGGRETHLETNFTLKSEWATHKFADCKAKRDTPTSCTVDYSTVYFVNIEVWVEAENALGKVTSDHINFDPVYKVKPNPPHNLSVINSEELSSILKLTWTNPSIKSVIILKYNIQYRTKDASTWSQIPPEDTASTRSSFTVQDLKPFTEYVFRIRCMKEDGKGYWSDWSEEASGITYED
notes: No spacer between D3 and Fc; V5 and 6xHis tags are not present; also called sgp130(D1-D3)Fc; sgp130(D1-3)Fc; not shown: IgG-Fc part; its beginning is printed as 'SCD'; detected with an anti-human IgG (Fc) antibody
B2: sgp130(D1-D3)S3-Fc (Fc fusion)
chain: ELLDPCGYISPESPVVQLHSNFTAVCVLKEKCMDYFHVNANYIVWKTNHFTIPKEQYTIINRTASSVTFTDIASLNIQLTCNILTFGQLEQNVYGITIISGLPPEKPKNLSCIVNEGKKMRCEWDGGRETHLETNFTLKSEWATHKFADCKAKRDTPTSCTVDYSTVYFVNIEVWVEAENALGKVTSDHINFDPVYKVKPNPPHNLSVINSEELSSILKLTWTNPSIKSVIILKYNIQYRTKDASTWSQIPPEDTASTRSSFTVQDLKPFTEYVFRIRCMKEDGKGYWSDWSEEASGITYEDGGGGSGGGGSGGGGS
notes: D4-D6 replaced by three GGGGS repeats; No tags; not shown: IgG-Fc part; its beginning is printed as 'SCD'; detected with an anti-human IgG (Fc) antibody
B3: sgp130(D1-D3)S1-Fc (Fc fusion)
chain: ELLDPCGYISPESPVVQLHSNFTAVCVLKEKCMDYFHVNANYIVWKTNHFTIPKEQYTIINRTASSVTFTDIASLNIQLTCNILTFGQLEQNVYGITIISGLPPEKPKNLSCIVNEGKKMRCEWDGGRETHLETNFTLKSEWATHKFADCKAKRDTPTSCTVDYSTVYFVNIEVWVEAENALGKVTSDHINFDPVYKVKPNPPHNLSVINSEELSSILKLTWTNPSIKSVIILKYNIQYRTKDASTWSQIPPEDTASTRSSFTVQDLKPFTEYVFRIRCMKEDGKGYWSDWSEEASGITYEDGGGGS
notes: D4-D6 replaced by one GGGGS repeat; No tags; not shown: IgG-Fc part; its beginning is printed as 'SCD'; detected with an anti-human IgG (Fc) antibody
B4: sgp130(D1-D3)S2-Fc (Fc fusion)
chain: ELLDPCGYISPESPVVQLHSNFTAVCVLKEKCMDYFHVNANYIVWKTNHFTIPKEQYTIINRTASSVTFTDIASLNIQLTCNILTFGQLEQNVYGITIISGLPPEKPKNLSCIVNEGKKMRCEWDGGRETHLETNFTLKSEWATHKFADCKAKRDTPTSCTVDYSTVYFVNIEVWVEAENALGKVTSDHINFDPVYKVKPNPPHNLSVINSEELSSILKLTWTNPSIKSVIILKYNIQYRTKDASTWSQIPPEDTASTRSSFTVQDLKPFTEYVFRIRCMKEDGKGYWSDWSEEASGITYEDGGGGSGGGGS
notes: D4-D6 replaced by two GGGGS repeats; No tags; not shown: IgG-Fc part; its beginning is printed as 'SCD'; detected with an anti-human IgG (Fc) antibody

The assay addresses T1, IL-6/soluble IL-6 receptor complex (human, UniProt P05231 30-212; P08887 20-358, limits assumed).
T1 construct: also called IL-6/sIL-6R complex; IL-6/sIL-6R
Nature of the assay: ELISA, coated Fc fusion, IL-6 + sIL-6R titrated, anti-sIL-6R detection. From the text:
Comparison of the IL-6/sIL-6R Complex Binding Properties of sgp130Fc and sgp130(D1-D3)S_n-Fc (A) Material The 96-well Microlon microtiter plates were purchased from Greiner Bio-One (Frickenhausen, Germany). Recombinant human IL-6 and soluble IL-6 receptor (sIL-6R) were obtained from BioSource (Solingen, Germany) and R&D Systems (Wiesbaden, Germany), respectively. The primary anti-sIL-6R antibody (clone M91, mouse IgG1) was from Beckman Coulter (Krefeld, Germany). The secondary anti-mouse IgG HRP-conjugated antibody from GE Healthcare (Freiburg, Germany) was the same as in the Western blotting experiments (see Example 1, A and C). Ready-to-use Tetramethylbenzidin (TMB) HRP substrate was purchased from Sigma-Aldrich (Taufkirchen, Germany).
For quality control and comparison between different lots of sgp130Fc variants, a standard ELISA was designed. All steps except for coating were carried out at room temperature, all washing steps were performed three times with a volume of 250 µl, and all conditions were measured in triplicate. A 96 well microtiter plate was coated with 100 ng/Well of original sgp130Fc as an internal standard and an equimolar quantity of sgp130(D1-D3)S_n-Fc in 100 µl PBS at 4° C. overnight. Thus, sgp130Fc and its variants served as capture reagent, while the bound sIL-6R was detected (see below). After washing with 0.05% Tween-20/PBS, wells were blocked with 200 µl/Well 3% BSA/PBS for 2 h. Subsequently, the blocking solution was removed, and wells were incubated for 1 h with a 1:2 dilution series (100 µl/Well) of recombinant human IL-6 (3.2 µg/ml to 50 ng/ml) and sIL-6R (1.6 µg/ml to 25 ng/ml) in 3% BSA/PBS. After washing with 0.05% Tween-20/PBS, wells were incubated with the primary anti-sIL-6R antibody diluted 1:2,000 in 3% BSA/PBS (100 µl/Well) for 1 h. Another series of three washing steps with 0.05% Tween-20/PBS was followed by a 1-h incubation with the secondary anti-mouse IgG HRP-conjugated antibody at 1:5,000 (100 µl/Well). After washing with 0.05% Tween-20/PBS and subsequently with dH_2O, plates were incubated with 100 µl/Well TMB substrate for about 5 min (depending on the intensity of the developing blue colour). The substrate reaction was stopped by adding 100 µl/Well 0.5 M sulfuric acid to the wells. Finally, the $A450$ was measured in a microplate reader.
Take B1: the binding result was “binds”.

In the case of B2, the binding result is “binds”.

On to B3, for which the binding result was “binds”.

As to B4, the binding result is given as “binds”.
